By Kd is commonly meant a measure of binding affinity in units of concentration.

One assay deals with mini-HA #4900 (Designed influenza HA stem #4900, …, stabilised). Kind of assay: BLI. The note with it: both partners purified.
Assay [1] concerns the target HA protein from H1N1 A/Solomon Islands/3/2006 (Influenza A virus (A/Solomon …, UniProt A7Y8I1, strain)). Kind of assay: BLI. The note with it: both partners purified.

Positions count from the first letter of the chain named.

B1: CR9114 with germline heavy chain, Fab (Fab, V domains shown)
VH: QVQLVQSGAEVKKPGSSVKVSCKASGGTFSSYAISWVRQAPGQGLEWMGGIIPIFGTANYAQKFQGRVTITADKSTSTAYMELSSLRSEDTAVYYCARHGNYYYYYGMDVWGQGTTVTVSS
VL: SYVLTQPPAVSGTPGQRVTISCSGSDSNIGRRSVNWYQQFPGTAPKLLIYSNDQRPSVVPDRFSGSKSGTSASLAISGLQSEDEAEYYCAAWDDSLKGAVFGGGTQLTVL
notes: also called CR9114 gHC; WT; source: Expi293F, co-transfected, purified (CaptureSelect CH1-XL)
The molecule B1 gave an equilibrium dissociation constant (Kd) in the assay with mini-HA #4900 of 6.2 µM.

B2: CR9114 gHC Fab VL W91F (Fab, V domains shown)
VH: B1 VH
VL: B1 VL with W92F
notes: Kabat numbering; source: Expi293F, co-transfected, purified (CaptureSelect CH1-XL)
On to B2, for which the dissociation constant (Kd) with mini-HA #4900 was 9.7 µM; in assay [1], 9.6 µM.

B3: CR9114 gHC Fab VL A96S (Fab, V domains shown)
VH: B1 VH
VL: B1 VL with A99S
notes: as for B2
For B3, the figures for the Kd (with mini-HA #4900; in assay [1]) were 1.9 µM and 1.6 µM, respectively.

B4: CR9114 gHC Fab VL A96R (Fab, V domains shown)
VH: B1 VH
VL: B1 VL with A99R
notes: as for B2
Consider B4, for which the dissociation constant (Kd) with mini-HA #4900 was determined as 13 µM; in assay [1], 21.5 µM.

B5: CR9114 gHC Fab VL W91Y (Fab, V domains shown)
VH: B1 VH
VL: B1 VL with W92Y
notes: as for B2
For B5, the Kd with mini-HA #4900 turned out to be 45.7 µM; in assay [1] it was 27.2 µM.

B6: CR9114 gHC Fab VL A96V (Fab, V domains shown)
VH: B1 VH
VL: B1 VL with A99V
notes: as for B2
In the case of B6, the results for the Kd (with mini-HA #4900; in assay [1]) were 3.8 µM and 15.8 µM, respectively.
